Assay [1] addresses T1, recombinant human PVRIG-human IgG1 Fc fusion protein (human).
T1 construct: no linker is told; also called human PVRIG-Fc fusion protein
Briefly: SPR (Biacore), human PVRIG-human IgG1 Fc on chip, antibody in flow, 1:1 model. The procedure: The binding kinetics and dissociation equilibrium constant (KD) of the antibodies of the present disclosure to human PVRIG were determined using the surface plasmon resonance (Biacore) assay. Briefly, a CMS chip was coated with human PVRIG-human IgG1 Fc fusion protein, and after being blocked, antibody solutions of different concentrations passed through the CMS chip at a fixed flow rate and bound to antigen for 2 min, followed by transfer to dissociation buffer for 6 min for determination of the dissociation rate. The kinetics were analyzed using a 1:1 binding model.
(Surface plasmon resonance follows binding to a sensor surface in real time, without labels.)

The target in assay [2] is T1, recombinant human PVRIG-human IgG1 Fc …. Briefly: ELISA, plate coated with human PVRIG-human IgG1 Fc at 1.0 µg/ml, HRP goat anti-mouse IgG, OD450. The procedure: The activity of the murine antibodies from different clones in binding to the human PVRIG-Fc fusion protein was evaluated by ELISA. The experimental procedure was as follows:
The recombinant human PVRIG-human IgG1 Fc fusion protein was diluted to 1.0 μg/ml in 1×PBS (phosphate buffer), the dilution was plated onto a 96-well ELISA plate overnight at 4° C. by 100 μl/well, the plate was washed 3 times with PBST (0.05% Tween20-PBS) and blocked with 1% BSA, followed by incubation at 37° C. for 2 h. The plate was washed 3 times with PBST, and murine antibodies (Antibody 1, Antibody 2, Antibody 3, or Antibody 4) diluted in multiple ratios were respectively added to set 8 concentrations, and the mixture was incubated at 37° C. for 1 h using mouse IgG1 (available from Biolegend) as a negative control at 100 μl/well. The plate was washed 3 times with PBST, and 100 μl of horseradish peroxidase (HRP)-labeled goat anti-mouse IgG antibody (available from BOSTER, 1:10,000 dilution) was added to each well, and the mixture was incubated at 37° C. for 1 h. After washing, 100 μl of TMB substrate solution was added to each well for developing for 10 to 15 min in the dark, 100 μl of stop solution (2M H2SO4) was added to each well, the solution was measured with a microplate reader immediately after the reaction stopped, and the absorbance at 450 nm (OD450) was read.
Target sequence in this assay (chain, as listed by the source limits assumed): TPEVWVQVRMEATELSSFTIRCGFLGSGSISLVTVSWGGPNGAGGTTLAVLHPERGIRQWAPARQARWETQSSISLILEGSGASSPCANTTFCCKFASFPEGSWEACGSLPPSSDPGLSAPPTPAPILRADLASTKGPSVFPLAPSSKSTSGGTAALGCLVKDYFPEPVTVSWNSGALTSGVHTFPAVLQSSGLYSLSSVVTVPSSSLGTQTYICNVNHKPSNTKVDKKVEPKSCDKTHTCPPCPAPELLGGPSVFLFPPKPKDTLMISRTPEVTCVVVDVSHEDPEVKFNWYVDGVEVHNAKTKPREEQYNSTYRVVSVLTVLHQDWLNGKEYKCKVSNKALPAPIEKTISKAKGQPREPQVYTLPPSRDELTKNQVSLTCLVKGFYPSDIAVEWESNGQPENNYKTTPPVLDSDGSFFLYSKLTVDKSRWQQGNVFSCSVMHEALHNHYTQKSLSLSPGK

Assay [3] concerns the target T2, human PVRIG protein on the cell membrane surface (human, UniProt Q6DKI7 41-326).
T2 construct: Also used here for the natural PVRIG on NKG cells and human lymphocytes; also called 293T-human PVRIG cell line; PVRIG on NKG cell line
T2 sequence: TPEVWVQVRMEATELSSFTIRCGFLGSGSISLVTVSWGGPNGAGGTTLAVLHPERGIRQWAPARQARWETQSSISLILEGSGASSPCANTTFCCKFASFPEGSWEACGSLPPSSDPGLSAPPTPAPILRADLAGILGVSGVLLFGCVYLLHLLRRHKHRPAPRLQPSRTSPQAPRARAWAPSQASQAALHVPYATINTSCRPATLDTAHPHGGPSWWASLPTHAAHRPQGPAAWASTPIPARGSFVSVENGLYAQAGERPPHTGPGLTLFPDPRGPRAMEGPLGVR
Put plainly: flow cytometry on 293T-human PVRIG cells, AF647 goat anti-mouse IgG, percent positive cells. The procedure:
The activity of murine antibodies from different clones in binding to human PVRIG protein on the cell membrane surface was evaluated by flow cytometry. The experimental procedure was as follows:
The 293T-human PVRIG cell line was harvested, washed with 1×PBS and resuspended, the cells were counted. Then […] were placed into each 1.5 ml Ep tube, the respective murine antibody (Antibody 1, Antibody 2, Antibody 3, or Antibody 4) was added at different concentrations, the mixture was incubated at 4° C. for 30 min, then washed with 1×PBS, and centrifuged at 3,500 rpm for 5 min to harvest the cells. The cell pellet was resuspended in 100 μl of 1×PBS, a AF647-labeled goat anti-mouse IgG antibody (available from Biolegend) was added, the mixture was incubated at 4° C. for 30 min in the dark, followed by washing twice with 1×PBS and harvesting the cells by centrifugation at 3,500 rpm for 5 min. The cell pellet was resuspended with 200 μl of 1×PBS and measured using a flow cytometer (BD LSR II).
For orientation: In flow cytometry, cells or beads pass a laser one at a time.

Assay [4] addresses T2, human PVRIG protein on the cell …. Put plainly: flow cytometry on 293T-human PVRIG cells, AF647 mouse anti-human IgG-Fc, percent positive cells. How it is done:
The activity of the humanized antibodies in binding to human PVRIG was evaluated by flow cytometry in the experiment.
The 293T-human PVRIG cell line was harvested, and washed and resuspended with 1×PBS to count the cells. Then 2×10^5 cells were placed into each 1.5 ml Ep tube, the respective humanized antibody was added at different concentrations, the mixture was incubated at 4° C. for 30 min, then washed with 1×PBS, and centrifuged at 3,500 rpm for 5 min to harvest the cells. The cell pellet was resuspended in 100 μl of 1×PBS, a AF647-labeled mouse anti-human IgG-Fc antibody (available from Biolegend) was added, the mixture was incubated at 4° C. for 30 min in the dark, followed by washing twice with 1×PBS and harvesting the cells by centrifugation at 3,500 rpm for 5 min. The cell pellet was resuspended with 200 μl of 1×PBS and measured using a flow cytometer (BD LSR II), and the analysis statistical results were shown in FIG. 16. It can be seen that all the humanized antibodies were ablet to specifically bind to the human PVRIG protein on the cell membrane surface.

B1: Antibody 3 (antibody, V domains shown)
VH: EVQLQQSGPELVKPGASMKISCKASGYSFTAYTMNWVKQSHGKNLEWIGLINPYNGGTSYNQKFKGKATLTGDKSSSTAYMELLSVTSEDSAVYFCAREGNYYGSRGDFDYWGQGTTLTVSS
VL: DILLTQSPAILSVSPGERVSFSCRASQTIVTNILWYQQRTNGSPRLLIRYASESISGIPSRFSGSGSGTDFTLSINSVESEDIAHYYCQQSHSWPFTFGSGTKLEIK
notes: Murine monoclonal antibody from hybridoma ascites; also called murine antibody Antibody 3
Usually Kd stands for the free concentration of one partner at which half of the binding sites on the other are occupied at equilibrium, for simple one-to-one binding. As a reminder, the koff is the first-order rate constant of dissociation. Broadly, the kon is the rate constant with which the complex forms. For orientation: EC50 (read off the curve) means the concentration at which the effect is half-maximal. For the molecule B1, in assay [1], the Kd was found to be 990 pM, the koff is 8.82e-05 s⁻¹ and the kon came to 89100 M⁻¹ s⁻¹. Moreover, the “EC50 (read off the curve)” value in assay [2] is ~0.02 µg/mL. Also, in assay [3], the “EC50 (read off the curve)” value is ~0.1 µg/mL.

B2: Antibody 2 (antibody, V domains shown)
VH: QVQLQQSGAELTKPGASVKISCKATGYTFSTFAIDWIKQRPGHGLAWIGEILPGGNNTNYNEKFKGKATFTADTSSNTAYMHLSSLTSEDSAVYYCSTYWFAYWGQGTLVTVSA
VL: DIVMTQSPSSLSVSAGEKVTMSCKSSQSLLNSGNQKNYLAWYQQKPGQPPKLLMYGASTRESGVPDRFTGSGSGTDFTLTISSVQAEDLAVYYCQNAHSYPPAFGAGTKLELK
notes: Murine monoclonal antibody from hybridoma ascites; also called murine antibody Antibody 2
On to B2, for which, in assay [1], the Kd amounted to 1510 pM, the koff was 0.000137 s⁻¹ and the association rate constant (kon) stood at 90500 M⁻¹ s⁻¹. The “EC50 (read off the curve)” value in assay [2] is ~0.03 µg/mL. Besides, the “EC50 (read off the curve)” value in assay [3] is ~0.03 µg/mL.

B3: Antibody 1 (antibody, V domains shown)
VH: QVQLQQSGAELMKPGASVKISCKATGYTFSTFAIDWIKQRPGPGLAWIGEILPGINNTNYNEKFKGKATFTADTSSNTAYMHLSSLTSEDSAVYYCSTYWFAYWGQGTLVTVSA
VL: DIVMTQSPSSLSVSAGEKVTMTCKSSQSLLNSGNQKNYLAWYQQKPGQPPKLLMYGASTRESGVPDRFTGSGSGTDFTLTISSVQAEDLAVYYCQNAHSYPPTFGAGTKLELK
notes: Murine monoclonal antibody from hybridoma ascites, purified on Protein G; also called murine antibody Antibody 1
As to B3, in assay [1], the Kd is 316 pM, the koff was 4.19e-05 s⁻¹ and the kon came to 133000 M⁻¹ s⁻¹. Besides, the “EC50 (read off the curve)” value in assay [2] was ~0.02 µg/mL. In assay [3], the “EC50 (read off the curve)” value was ~0.02 µg/mL.

B4: Antibody 4-hu4 (antibody, human IgG4 S228P, kappa, V domains shown)
VH: EVQLVQSGAEVKKPGSSVKVSCKASGGTFSSFSIEWVRQAPGQGLEWIGEILPGSNSTNYNEKFKGRVTFTADESTSTAYMELSSLRSEDTAVYYCSSYWFAYWGQGTLVTVSS
VL: DIVMTQSPDSLAVSLGERATINCKSSQSLLNSGNQKNYLAWYQQKPGQPPKLLIYGASTRESGVPDRFSGSGSGTDFTLTISSLQAEDVAVYYCQNAHSYPPTFGQGTKLEIKR
notes: Humanized Antibody 4; heavy chain IgG4 with S228P already in the entry
In the case of B4, in assay [1], the Kd amounted to 236 pM, the koff turned out to be 4.44e-05 s⁻¹ and the kon was 188000 M⁻¹ s⁻¹. Also, the “EC50 (read off the curve)” value in assay [4] was ~0.02 µg/mL.

B5: Antibody 4-hu5 (antibody, human IgG4 S228P, kappa, V domains shown)
VH: EVQLVQSGAEVKKPGSSVKVSCKASGGTFSSFSIEWVRQAPGQGLEWIGEILPGSNSTNYNEKFKGRVTFTADTSTNTAYMELSSLRSEDTAVYYCSSYWFAYWGQGTLVTVSS
VL: DIVMTQSPDSLAVSLGERATINCKSSQSLLNSGNQKNYLAWYQQKPGQPPKLLIYGASTRESGVPDRFSGSGSGTDFTLTISSLQAEDVAVYYCQNAHSYPPTFGQGTKLEIKR
notes: as for B4
Take B5: in assay [1], the dissociation constant (Kd) worked out at 15 pM, the koff was 3.54e-06 s⁻¹ and the kon came to 236000 M⁻¹ s⁻¹.

B6: Antibody 4-hu1 (antibody, human IgG4 S228P, kappa, V domains shown)
VH: EVQLVQSGAEVKKPGSSVKVSCKASGGTFSSFSIEWVRQAPGQGLEWMGEILPGSNSTNYNEKFKGRVTITADESTSTAYMELSSLRSEDTAVYYCARYWFAYWGQGTLVTVSS
VL: DIVMTQSPDSLAVSLGERATINCKSSQSLLNSGNQKNYLAWYQQKPGQPPKLLIYGASTRESGVPDRFSGSGSGTDFTLTISSLQAEDVAVYYCQNAHSYPPTFGQGTKLEIKR
notes: as for B4
B6: in assay [1], the Kd came out at 118 pM, the koff was 2.32e-05 s⁻¹ and the kon is 197000 M⁻¹ s⁻¹.

B7: Antibody 4-hu3 (antibody, human IgG4 S228P, kappa, V domains shown)
VH: EVQLVQSGAEVKKPGSSVKVSCKASGGTFSSFSIEWVRQAPGQGLEWMGEILPGSNSTNYNEKFKGRVTFTADESTSTAYMELSSLRSEDTAVYYCSSYWFAYWGQGTLVTVSS
VL: DIVMTQSPDSLAVSLGERATINCKSSQSLLNSGNQKNYLAWYQQKPGQPPKLLIYGASTRESGVPDRFSGSGSGTDFTLTISSLQAEDVAVYYCQNAHSYPPTFGQGTKLEIKR
notes: as for B4
On to B7, for which, in assay [1], the Kd is 91.6 pM, the koff is 1.95e-05 s⁻¹ and the kon turned out to be 212000 M⁻¹ s⁻¹.

B8: Antibody 4-hu2 (antibody, human IgG4 S228P, kappa, V domains shown)
VH: EVQLVQSGAEVKKPGSSVKVSCKASGGTFSSFSIEWVRQAPGQGLEWMGEILPGSNSTNYNEKFKGRVTITADESTSTAYMELSSLRSEDTAVYYCSSYWFAYWGQGTLVTVSS
VL: DIVMTQSPDSLAVSLGERATINCKSSQSLLNSGNQKNYLAWYQQKPGQPPKLLIYGASTRESGVPDRFSGSGSGTDFTLTISSLQAEDVAVYYCQNAHSYPPTFGQGTKLEIKR
notes: as for B4
Regarding B8, in assay [1], the Kd came out at 239 pM, the off-rate constant (koff) was 6.38e-05 s⁻¹ and the kon was 266000 M⁻¹ s⁻¹.

B9: Antibody 4-hu8 (antibody, human IgG4 S228P, kappa, V domains shown)
VH: EVQLVQSGAEVKKPGSSVKVSCKASGYTFSSFSIEWVRQAPGQGLEWMGEILPGSNSTNYNEKFKGRVTFTADESTSTAYMELSSLRSEDTAVYYCSSYWFAYWGQGTLVTVSS
VL: DIVMTQSPDSLAVSLGERATINCKSSQSLLNSGNQKNYLAWYQQKPGQPPKLLIYGASTRESGVPDRFSGSGSGTDFTLTISSLQAEDVAVYYCQNAHSYPPTFGQGTKLEIKR
notes: Humanized Antibody 4; heavy chain IgG4 with S228P already in the entry; also called Antibody 4-hub [sic]
For B9, in assay [1], the Kd is ≤ 5.05 pM, the dissociation rate constant (koff) is ≤ 1e-06 s⁻¹ and the association rate constant (kon) is 198000 M⁻¹ s⁻¹. Further, in assay [4], the “EC50 (read off the curve)” value was ~0.001 µg/mL.

B10: Antibody 4-hu7 (antibody, human IgG4 S228P, kappa, V domains shown)
VH: EVQLVQSGAEVKKPGSSVKVSCKASGYTFSSFSIEWVRQAPGQGLEWMGEILPGSNSTNYNEKFKGRVTITADESTSTAYMELSSLRSEDTAVYYCSSYWFAYWGQGTLVTVSS
VL: DIVMTQSPDSLAVSLGERATINCKSSQSLLNSGNQKNYLAWYQQKPGQPPKLLIYGASTRESGVPDRFSGSGSGTDFTLTISSLQAEDVAVYYCQNAHSYPPTFGQGTKLEIKR
notes: as for B4
As for B10, in assay [1], the dissociation constant (Kd) is ≤ 3.61 pM, the koff was ≤ 1e-06 s⁻¹ and the kon was 277000 M⁻¹ s⁻¹.

B11: Antibody 4-hu6 (antibody, human IgG4 S228P, kappa, V domains shown)
VH: EVQLVQSGAEVKKPGSSVKVSCKASGGTFSSFSIEWVRQAPGQGLEWIGEILPGSNSTNYNEKFKGKATFTADTSTNTAYMELSSLRSEDTAVYYCSSYWFAYWGQGTLVTVSS
VL: DIVMTQSPDSLAVSLGERATINCKSSQSLLNSGNQKNYLAWYQQKPGQPPKLLIYGASTRESGVPDRFSGSGSGTDFTLTISSLQAEDVAVYYCQNAHSYPPTFGQGTKLEIKR
notes: as for B9
As to B11, in assay [1], the Kd was ≤ 3.56 pM, the dissociation rate constant (koff) was ≤ 1e-06 s⁻¹ and the kon amounted to 281000 M⁻¹ s⁻¹.

The record behind these values is patent US20230227572A1 (HEFEI TG IMMUNOPHARMA, published 2023).
